Data on ten molecules can be found in paper PMC6529005, “FMRP - G-quadruplex mRNA - miR-125a interactions: Implications for miR-125a mediated translation regulation of PSD-95 mRNA”.

The target of data set [1] is T1, FMRP S500D (UniProt Q06787 1-632, S500D). Nature of the data set: fluorescence titration (2AP); 150 mM KCl, 1 uM BSA; Fluorescence: 10 mM cacodylic acid pH 6.5, 150 mM KCl, 1 uM BSA, 200 nM RNA; EMSA: 0.5x TBE native gels at 4 C (5 mM KCl for PSD-95 RNAs), incubation at room te. In general terms: Mobility shift assays separate free from complexed probe on a gel.
Data set [2] deals with T1, FMRP S500D. The data set is described as follows: EMSA; 200 nM RNA, similar to miR-125a; Fluorescence: 10 mM cacodylic acid pH 6.5, 150 mM KCl, 1 uM BSA, 200 nM RNA; EMSA: 0.5x TBE native gels at 4 C (5 mM KCl for PSD-95 RNAs), incubation at room te.
Data set [3] addresses T1, FMRP S500D. Nature of the data set: EMSA; 200 nM RNA, complete at 1:2; Kd estimated low nM; Fluorescence: 10 mM cacodylic acid pH 6.5, 150 mM KCl, 1 uM BSA, 200 nM RNA; EMSA: 0.5x TBE native gels at 4 C (5 mM KCl for PSD-95 RNAs), incubation at room te.
In data set [4] the target is FMRP RGG peptide (UniProt Q06787). The data set is described as follows: EMSA; 200 nM RNA, up to 1:2; Fluorescence: 10 mM cacodylic acid pH 6.5, 150 mM KCl, 1 uM BSA, 200 nM RNA; EMSA: 0.5x TBE native gels at 4 C (5 mM KCl for PSD-95 RNAs), incubation at room temperature 15-20 min; pull-down: RIPA (150 mM NaCl, 50 mM Tris pH 8.0), room temperature.
For data set [5] the target is unchanged. The data set is described as follows: EMSA; 5 mM KCl; Fluorescence: 10 mM cacodylic acid pH 6.5, 150 mM KCl, 1 uM BSA, 200 nM RNA; EMSA: 0.5x TBE native gels at 4 C (5 mM KCl for PSD-95 RNAs), incubation at room temperature 15-20 min; pull-down: RIPA (150 mM NaCl, 50 mM Tris pH 8.0), room temperature.
Data set [6] has as its target T1, FMRP S500D. Nature of the data set: EMSA; 200 nM RNA, up to 1:2; Fluorescence: 10 mM cacodylic acid pH 6.5, 150 mM KCl, 1 uM BSA, 200 nM RNA; EMSA: 0.5x TBE native gels at 4 C (5 mM KCl for PSD-95 RNAs), incubation at room te.

GGGAAAAGGGAGGGAUGGG (structured_RNA, A11 replaced by 2-aminopurine) [PSD-95 Q11234 11-2AP] displayed a Kd with FMRP S500D [1] of 66 nM. In the case of UCCCUGAGACCCUAACUUGUGA (ssRNA) [miR-125b], the binding result with FMRP S500D [2] is “binds”. On to UCCCUGAGACCCUUUAACCUGUGA (ssRNA) [miR-125a], for which the binding result with FMRP S500D [3] was “binds”; with FMRP RGG peptide [4] it was “no binding”. As to GGGAAAAGGGAGGGAUGGGUCUAGGG (structured_RNA) [PSD-95 Q1], in the data set with FMRP RGG peptide [5] (G-quadruplex, multiple conformations), the binding result is recorded as “binds”. Regarding UCCCUGAGACCGUUUAACCUGUGA (ssRNA) [miR-125a-Mut2], in the data set with FMRP S500D [2], the binding result is given as “binds”. Turning to UGGAGUGUGACAAUGGUGUUUG (ssRNA) [miR-122], in the data set with FMRP S500D [6], the binding result was “no binding”. As for UAGGUAGUUUCAUGUUGUUGGG (ssRNA) [miR-196a-1], the binding result in the data set with FMRP S500D [6] is “binds”. In turn, GGGAGGGAGGGUGGG (structured_RNA, A4 replaced by 2-aminopurine) [PSD-95 Q2 4-2AP] returned a Kd with FMRP S500D [1] of 100 nM.

B1: PSD-95 Q1-Q2 (structured_RNA)
RNA: GGGAAAAGGGAGGGAUGGGUCUAGGGAGUGGGAAAUGCGGGAGGGAGGGUGGG
With B1, the binding result in the data set with FMRP RGG peptide [5] (two G-quadruplexes) was “binds”.

On to GGGAGGGAGGGUGGG (structured_RNA) [PSD-95 Q2], for which the binding result in the data set with FMRP RGG peptide [5] (G-quadruplex) is “binds”.

What is called Kd is the equilibrium constant for the complex coming apart. Low values mean a tighter complex, high ones a looser complex.
